Measurements taken from patent US20180021429A1, “ANTICANCER AGENTS OR ANTIMETASTATIC AGENTS USING FSTL1 AND COMBINATION DRUG THEREOF” (PHARMA FOODS INTERNATIONAL CO., LTD., priority 2015, published 2018).
Entries after “also recorded” stand apart in the source; their conditions may differ.

Assays:
[1] = tested on: induction of MSCs having the ability to differentiate into adipocytes; assay: Ability to differentiate into adipocytes (Examples 14, 16); type: cell-based, mouse; details: Example 16, FIG. 10B/40B; antibody 2.5-20.0 μg/ml
Description: The antibody clone (#6-55, #7, #10, #13, or […]) was evaluated for its activity by the same testing method as in Example 13. #6-55 was set as a positive control for activity. […] Mouse bone marrow cells were supplemented with FSTL1 and the predetermined concentration of each antibody and cultured for 8 days. 5×10^4 cells/well were separated from each culture system and evaluated for the ability to differentiate into adipocytes using an adipocyte differentiation reagent included in “Mesenchymal Stem Cell Functional Identification Kit (R&D Systems, Inc., Cat. No. SC010)”. For the evaluation method, the cells were supplemented with the adipocyte differentiation reagent and cultured for 8 days. Then, adipocytes per culture system were counted under a microscope for evaluation. […]
In the same way as in Example 15, mouse bone marrow cells were supplemented with FSTL1 and the predetermined concentration of each antibody and cultured for 8 days. 5×10^4 cells/well were separated from each culture system and evaluated for the ability to differentiate into adipocytes using an adipocyte differentiation reagent included in “Mesenchymal Stem Cell Functional Identification Kit (R&D Systems, Inc., Cat. No. SC010)”. […] Then, adipocytes per culture system were counted under a microscope for evaluation (FIG. 10B). […]

[2] = tested on: mouse melanoma B16-F10; assay: In vivo, mouse melanoma B16-F10 (Example 22)
Description: (§1) The drug efficacy of the anti-FSTL1 antibody was evaluated according to Examples 17 to 20 using other cancer-bearing models of C57BL/6 mice of the same strain as in Snail-positive tumor bone metastasis models. The “mouse melanoma B16-F10” is a parent line of the cell line forced to express Snail, which was transplanted in the bone metastasis models used in the preceding tests.
1. Experiment Group (n=5) • 1. Mouse melanoma B16-F10+control IgG (anti-DNP mAb) • 2. Mouse melanoma B16-F10+anti-FSTL1 mAb (#6-55)
(§2) • Day 0: transplantation of tumor cells (1×10^6 cells subcutaneously & 1×10^6 cells intravenously) • Day 3: intraperitoneal administration of the antibody (first dose, corresponding to 200 μg/mouse=10 mg/kg) • Day 6: intraperitoneal administration of the antibody (second dose, corresponding to 200 μg/mouse=10 mg/kg) • Day 15 various immunological assays
• Effects on the growth of subcutaneous tumor (calculation of tumor volume by tumor size measurement): measured 6, 10, and 14 days after tumor implantation (FIG. 46A) • Effects on weight loss (FIG. 46B)
• Effects on the growth of subcutaneous tumor (calculation of tumor volume by tumor size measurement): measured 6, 10, and 14 days after tumor implantation (FIG. 78A) • Effects on weight loss (FIG. 78B)

[3] = tested on: mouse colorectal cancer CT26 cells; assay: Mouse colorectal cancer CT26 cell-transplanted model (Example 20); type: in vivo
Description: Procedures and methods of the experiment were basically performed under substantially the same conditions as in the bone metastasis model experiments of Examples 17 to 19 except that bone metastasis was not evaluated. Specifically, drug efficacy evaluation was conducted using mouse tumor models other than Snail-positive tumor bone metastasis models. The drug efficacy of the anti-FSTL1 antibody was evaluated using cancer-bearing models of BALB/c mice different in strain from the C57BL/6 mice used in the preceding tests. The test was conducted by changing only the amount of tumor implanted, antibody administration timing, and assay timing. • Day 0: transplantation of tumor cells (5×10^5 cells subcutaneously & 5×10^5 cells intravenously) Days 4 and 7: intraperitoneal administration of the antibody (10 mg/kg) • Day 14: drug efficacy evaluation (subcutaneous tumor growth (FIG. 108A) and lung metastasis (FIG. 108B)) For lung metastasis, the number of metastatic nodules in the lung was macroscopically counted. The tumor volumes of the mice were measured 7, 11, and 14 days after tumor implantation.

[4] = tested on: mouse lymphoma EL4; assay: In vivo lymphoma model (Example 23); details: intraperitoneal 10 mg/kg on days 3 and 6; vs control antibody
Description: The drug efficacy of the anti-FSTL1 antibody was evaluated according to Examples 17 to 20 using mouse lymphoma EL4, which is a cancer type having enhanced FSTL1 expression.
1. Experiment Group (n=5) • 1. Mouse lymphoma EL4+control IgG (anti-DNP mAb) • 2. Mouse lymphoma EL4+anti-FSTL1 mAb (#6-55)
as §2, with “15:” for “15”
• Effects on the growth of subcutaneous tumor (calculation of tumor volume by tumor size measurement): measured 3, 6, and 10 days after tumor implantation

[5] = tested on: mouse melanoma B16-F10; assay: In vivo melanoma B16-F10 model (Example 22); parameters: species or system C57BL/6 mice; details: intraperitoneal 10 mg/kg on days 3 and 6
Description: as §1
1. Experiment Group (n=5) 1. Mouse melanoma B16-F10+control IgG (anti-DNP mAb) 2. Mouse melanoma B16-F10+anti-FSTL mAb (#6-55)
as §2
• Effects on the growth of subcutaneous tumor (calculation of tumor volume by tumor size measurement): measured 6, 10, and 14 days after tumor implantation (FIG. 16A) • Effects on weight loss (FIG. 16B)

B1: #6-55: chicken-mouse chimeric anti-FSTL1 antibody clone; variable regions SEQ ID NO: 783 (light), 785 (heavy) (antibody, V domains shown)
VH: AVTLDESGGGLQTPGGALSLVCKGSGFTFTSVTMQWVRQAPGKGLEWVASVCSGSSTYYAPAVKGRATISRDNGQSTVRLQLSNLRPEDTGTYYCAKIAGRARWSCTSAAYNIDAWGHGTEVIVSS
VL: ASTQPSSVSAIPGETVKITCSGGGNNYGWYQQRSPGSAPVTVIYYNDNRPSNIPSRFSGSTSGSTSTLTITGVQADDEAIYYCGSWDSNTDSGIFGAGTTLTVL
modifications: mouse constant regions
Q: How did the “differentiation into adipocytes (induction of MSCs having the ability to differentiate into adipocytes)” value [1] turn out when B1 was run?
A: Its value is “inhibited by #6-55 in an antibody dose-dependent manner; also recorded: cells differentiating into adipocytes decreased in number by the addition of #6-55 in a dose-dependent manner”.

Q: What about the weight loss ([2]; intraperitoneal 10 mg/kg on days 3 and 6) of the same molecule?
A: Its weight loss is “suppressive activity against weight loss was also exhibited”.

Q: And the subcutaneous tumor growth ([2]; intraperitoneal 10 mg/kg on days 3 and 6, vs control antibody)?
A: Its subcutaneous tumor growth is “strongly suppressed”.

Q: What about the “growth and lung metastasis of CT26 subcutaneous tumor” value ([3]; BALB/c mice, intraperitoneal 10 mg/kg on days 4 and 7, day 14, FIG. 108) of the same molecule?
A: The value was “very strongly suppressed”.

Q: And the “number of metastatic nodules in the lung” value ([3]; day 14, control antibody group 14 nodules on average, FIG. 108B)?
A: Its value is 0 to 3 nodules.

Q: What about the “disappearance of solid tumor (mice)” value ([3]; n=5, intraperitoneal 10 mg/kg on days 4 and 7) of the same molecule?
A: The value was “three out of the five mice”.

Q: And the subcutaneous tumor growth [4]?
A: The subcutaneous tumor growth was “strongly suppressed”.

Q: What about the weight loss [5] of the same molecule?
A: The weight loss was “suppressive activity against weight loss was also exhibited”.

Q: What about the subcutaneous tumor growth ([5]; vs control antibody) of the same molecule?
A: Its subcutaneous tumor growth is “strongly suppressed”.
